Changes are numbered by the printed parent chain. One block for each binder: values may come before it.
Experiments:
[1] = target: T1, human CDH3 (P-cadherin), endogenous, on cancer cells (human, UniProt P22223 108-829); test: FACS competition on a CDH3-expressing cell line; competitor: Alexa488-labeled NITE BP-989 antibody
T1 construct: Endogenous CDH3 on NCI-H358 and other human cancer cells or tissues; also called CDH3 on NCI-H358; CDH3-expressing cancer cell line

[2] = target: T2, full-length human CDH3 with myc-His tag, forcibly expressed on CHO cells (EXZ1501) (human, UniProt P22223 108-829); test: flow cytometry on CHO cells with forcible expression of CDH3
T2 construct: Clones were selected by Western blotting with an anti-c-Myc antibody; also called CDH3 full-length expression CHO cell line (EXZ1501); CHO cells with forcible expression of CDH3; not shown: C-terminal myc-His tag from vector pEF4/myc-HisB

[3] = target: T1, human CDH3 (P-cadherin), endogenous, on …; test: flow cytometry on NCI-H358 cells, antibody at 10 ug/mL
Experimental: A cell line that would be used as a reaction target (an NCI-H358 cell line that had been confirmed to express CDH3 at a high level) was treated with 2 mM EDTA-PBS, so that the cells were removed from a culture plate, and the obtained cells were then suspended in a FACS solution to a cell density of 1×10⁶ cells/mL. This cell suspension was seeded on a 96-well plate, resulting in an amount of 50 μL/well, and the purified chimeric antibody was then added to the plate to result in a concentration of 10 μg/mL, followed by performing a reaction at 4° C. for 60 minutes. Thereafter, the reaction mixture was washed with a FACS solution (150 μL/well) two times, and 4 μg/ml AlexaFlour488-labeled anti-human IgG/goat F(ab′)₂ (Invitrogen) was then added to the resultant. The obtained mixture was reacted at 4° C. for 30 minutes. Thereafter, the cells were washed with a FACS solution two times, and was then subjected to flow cytometry.

[4] = target: T1, human CDH3 (P-cadherin), endogenous, on …; test: FACS competition on NCI-H358; competitor: Alexa488-labeled NITE BP-989 antibody; IC50 relative to the antibody without drug, average DAR 0 to 8
Experimental: The influence of humanization on affinity was confirmed by carrying out a competition test using a flow cytometer (FACS). A test antibody whose dilution series had been prepared, a cell line that expressed CDH3, and a certain amount of Amaxa488-labeled antibody that was competitive with the test antibody were allowed to coexist, and the reaction was then carried out at room temperature for 1 hour. Thereafter, the reaction product was washed with a FACS solution, and FACS measurement was then carried out. […] The obtained IC50 value was defined as an index for affinity.
The influence of the average drug-to-antibody ratio (DAR) of the drug binding to the humanized antibody of the present invention on affinity was confirmed by the same competition test using FACS as that in Example 25. The antibody drug conjugate was prepared in the range of average DAR of 0 to 8 by the method described in Example 15. The DAR was quantified by the method described in Example 16.
As a cell line, NCI-H358 was used. […] By the same FACS competition test as that described in Example 25, each IC50 value was calculated as an index for affinity.

T1 sequence (P22223 108-829 limits assumed): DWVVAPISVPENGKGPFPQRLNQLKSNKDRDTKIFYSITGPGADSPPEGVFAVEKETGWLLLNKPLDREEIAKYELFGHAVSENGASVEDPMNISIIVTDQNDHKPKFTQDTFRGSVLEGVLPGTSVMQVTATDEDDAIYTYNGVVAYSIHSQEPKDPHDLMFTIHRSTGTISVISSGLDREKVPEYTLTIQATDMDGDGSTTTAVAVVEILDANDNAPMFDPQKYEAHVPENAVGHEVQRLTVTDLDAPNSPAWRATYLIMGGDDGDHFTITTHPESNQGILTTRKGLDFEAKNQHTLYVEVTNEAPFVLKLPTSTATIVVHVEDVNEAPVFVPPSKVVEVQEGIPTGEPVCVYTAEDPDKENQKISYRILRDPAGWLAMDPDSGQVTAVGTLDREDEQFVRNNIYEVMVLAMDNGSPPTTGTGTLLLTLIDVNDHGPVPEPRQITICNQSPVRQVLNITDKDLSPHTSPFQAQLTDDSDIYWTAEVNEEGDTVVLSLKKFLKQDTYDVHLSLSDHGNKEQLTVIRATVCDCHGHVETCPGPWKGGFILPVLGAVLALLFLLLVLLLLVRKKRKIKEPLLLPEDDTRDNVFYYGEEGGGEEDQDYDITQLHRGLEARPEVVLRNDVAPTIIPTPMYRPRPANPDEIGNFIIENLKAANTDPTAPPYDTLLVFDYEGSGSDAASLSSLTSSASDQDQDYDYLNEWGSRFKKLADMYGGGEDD
T2 sequence (P22223 108-829): as the sequence (P22223 108-829 limits assumed) above

binding result [1]: binds | binding result [2]: binds
B1: PPAT-076-44Hd (antibody, V domains shown)
VH: QVQLVESGGGVVQPGRSLRLSCAASGFSLTSYGVHWVRQAPGKGLEWVGVIWSGGSTDYADSVKGRFTISKDNSKNTVYLQMNSLRAEDTAVYYCARNSNNGFAYWGQGTLVTVSS
VL: DIQLTQSPSSLSASVGDRVTITCRASQNIYSNLAWYQQKPGKAPKLLVYAAKNLASGVPSRFSGSGSGTDFTLTISSLQPEDFATYYCQHFYDTPWTFGQGTKVEIK
notes: also called anti-CDH3 humanized antibody (human germline framework, reshaped); humanized antibody

binding result [2]: binds | binding result [3]: binds
B2: PPAT-076-44Hb (antibody, V domains shown)
VH: B1 VH with Q1E, V11L, R16G, G49A
VL: B1 VL with L4M
notes: also called anti-CDH3 humanized antibody (human consensus framework, reshaped)

binding result [4]: binds
B3: PPAT-076-44Hd, to which a drug is bound (DM1 conjugate) (antibody, human IgG1, V domains shown)
VH: B1 VH
VL: B1 VL
modifications: DM1 bound through Sulfo-SMCC; sites not stated
notes: Human IgG1/kappa; also called CDH3 antibody drug conjugate of PPAT-076-44Hd; drug conjugate of PPAT-076-44Hd

binding result [4]: binds
B4: PPAT-076-44Hb, to which a drug is bound (DM1 conjugate) (antibody, human IgG1, V domains shown)
VH: B1 VH with Q1E, V11L, R16G, G49A
VL: B1 VL with L4M
modifications: DM1 bound through Sulfo-SMCC; sites not stated
notes: Human IgG1/kappa; also called CDH3 antibody drug conjugate of PPAT-076-44Hb; humanized antibody drug conjugate

Reference: patent US20160152703A1 (PERSEUS PROTEOMICS, published 2016)
